{
  "source": "patent US20250236878A1",
  "about": "(priority 2019, published 2025)",
  "molecules": {"B1": {"name": "endochitinase (SEQ ID NO: 778): endochitinase as printed in b921; probably a misprint for SEQ ID NO: 777 (protein, listed as Serratia marcescens)", "chain": "MSTRKAVIGYYFIPTNQINNYTETDTSVVPFPVSNITPAKAKQLTHINFSFLDINSNLECAWDPATNDAKARDVVNRLTALKAHNPSLRIMFSIGGWYYSNDLGVSHANYVNAVKTPASRAKFAQSCVRIMKDYGFDGVDIDWEYPQAAEVDGFIAALQEIRTLLNQQTVADGRQALPYQLTIAGAGGAFFLSRYYSKLAQIVAPLDYINLMTYDLAGPWEKVTNHQAALFGDAAGPTFYNALREANLGWSWEELTRAFPSPFSLTVDAAVQQHLMMEGVPSAKIVMGVPFYGRAFKGVSGGNGGQYSSHSTPGEDPYPSTDYWLVGCEECVRDKDPRIASYRQLEQMLQGNYGYQRLWNDKTKTPYLYHAQNGLFVTYDDAESFKYKAKYIKQQQLGGVMFWHLGQDNRNGDLLAALDRYFNAADYDDSQLDMGTGLRYTGVGPGNLPIMTAPAYVPGTTYAQGALVSYQGYVWQTKWGYITSAPGSDSAWLKVGRVA"}, "B2": {"name": "Endochitinase (ChiC) Bacillus thuringiensis immobilized enzyme (SEQ ID NO: 777) (protein, listed as Bacillus thuringiensis)", "chain": "DSPKQSQKIVGYFPSWGVYGRNYQVADIDASKLTHLNYAFADICWKGKHGNPSTHPDNPNKQTWNCKESGVPLQNKEVPNGTLVLGEPWADVTKSYPGSGTTWEDCDKYARCGNFGELKRLKAKYPHLKTIISVGGWTWSNRFSDMAADEKTRKVFAESTVAFLRAYGFDGVDLDWEYPGVETIPGGSYRPEDKQNFTLLLQDVRNALNKAGAEDGKQYLLTIASGASQRYADHTELKKISQILDWINIMTYDFHGGWEATSNHNAALYKDPNDPAANTNFYVDGAIDVYTNEGVPVDKLVLGVPFYGRGWKSCGKENNGQYQPCKPGSDGKLASKGTWDDYSTGDTGVYDYGDLTANYVNKNGFVRYWNDTAKVPYLYNATTGTFISYDDNESMKYKTDYIKTKGLSGAMFWELSGDCRTSPKYSCSGPKLLDTLVKELLGGPINQKDTEPPTNVKNIIVTNKTSSSVQLSWTASTDNVGVTEYEITAGEEKWSATTNSITIKNLKPNTEYTFSVIAKDASGNKSHPTALTVKTDEANTTPPDGNGTATFSVTSNWGSGYNFSIIIKNNGTIPIKNWKLEFDYSGNLTQVWDSKISSKTNNHYVITNAGWNGEIPPGGSITIGGAGTGNPAELLNAVISEN", "modifications": "immobilized"}, "B3": {"name": "ACC deaminase: 1-aminocyclopropane-1-carboxylate deaminase polypeptide with two substitutions relative to wild type (protein, listed as Bacillus thuringiensis)", "chain": "MNLAKFPRKKYTESYTPIEKLNNFSEALGGPTIYFKRDDLLGLTAGGNKTRKLEFLVADAQEKGADTLITAGGIQSNHCRLTLAAAVKEKMKCILVLEEGLEPEEKRDFNGNYFLYHLLGAENVIVVPNGADLMEEMNKVAKEVSEKGSTPYVIPVGGSNPTGAMGYVACAQEIMAQSFEQGIDFSSVVCVSGSGGMHAGLITGFSGTQSHIPVIGINVSRGKAEQEEKVAKLVDETSAHVGIPNFISRDAVTCFDEYVGPGYALPTPEMVEAVQLLAKTEGILLDPVYEGKAVAGLIDLIRKGKFNKEDNILFVHLGGSPALYANTSLFA"}, "B4": {"name": "SEQ ID NO: 772: β-1,3 endoglucanase, Cellulosimicrobium cellulans DK1 (protein)", "chain": "APGDLLWSDEFDGAAGSAPNPAVWNHETGAHGWGNAELQNYTASRANSALDGQGNLVITARREGDGSYTSARMTTQGKYQPQYGRIEARIQIPRGQGIWPAFWMLGGSFPGTPWPSSGEIDIMENVGFEPHRVHGTVHGPGYSGGSGITGMYQHPQGWSFADTFHTFAVDWKPGEITWFVDGQQFHRVTRASVGANAWVFDQPFFLILNVAVGGQWPGYPDGTTQLPQQMKVDYVRVYDNGSGSSNPGNPGTGLPTGTGAVRAANGMCIDVPWADPTDGNPVQIVTCSGNAAQTWTRGSDGTVRALGKCLDVRDGSTTRGAAVQVWTCNGTGAQKWAYDAGSKALRNPQSGLCLDATGGAPLHDGQRLQTWTCNGTTAQQWTL", "modifications": "Cellulosimicrobium cellulans strain DK-1", "notes": "β-1,3 endoglucanase, Cellulosimicrobium cellulans DK1"}, "B5": {"name": "β-1,3-endoglucanase (DK-1) Cellulosimicrobium cellulans (SEQ ID NO: 772) (protein)", "chain": "B4 chain", "modifications": "Cellulosimicrobium cellulans strain DK-1"}, "B6": {"name": "SEQ ID NO: 732: β-1,3 endoglucanase, Paenibacillus species (protein)", "chain": "AETAGTTITSMSYFSTADGPIITKSGVGQASYGFVMPIFNGGSATWNDVAQDLGVKVKVNGSWVDIDSVSSFVYNQNWGHWNDGGFTGYWFTLSATTEIQLYSKANEVTLEYSLVFQNINKTTITAMTPTQGPQITAGFTGGAGFTYPIFNHDPAITYAAVADDLKVYVKPVNSSQWIDIDNNAASGWIYDQNFGQFTDGGGGYWFNVTESINVKLESKTSSTNIVYTISFNEPVRNSYVLTPYEGTTFTADASGAIGIPLPKIDGGAPIGTELGNFVYQININGQWVDLDNSSQSGFVYSANGYNNMSAANQWGYWADHIYGLWFQPIQVDMQIRIGYPLNGQAGGSVGSNFVNYTLIGNPDAPRPDVNDQEDIPIGTPNDSAIEGMNLIWQDEFNGTALDQSKWNYETGYYLNDDPNTWGWGNSELQHYTDRAQNVFVQDGKLNIKALNEPKSFPQDPSRYAQYSSGKINTKDHFSLKYGRVDFRAKLPTGNGIWPALWMLPQDNVYGTWASSGEIDVMEAKGRLPGSTSGAVHFGGQWPTNRYLSGEYHFPEGQTFANDYHVYSVVWEEDNIKWYVDGKFFFKVTRDQWYSAAAPNNPNAPFDQPFYLIMNLAIGGTFDGGRTPDPSDIPATMQVDYVRVYKEGEGGGQNPGNVPVTGVTVNPTTAQVEVGQSVQLNASVAPSNATNKQVTWSVSGSSIASVSPNGLVTGLAQGTTTVTATTADGNKAASATITVAPAPSTVIVIGDEVKGLKKIGDDLLFYVNGATFADLHYKVNNGGQLNVAMAPTGNGNYTYPVHNLKHGDTVEYFFTYNPGQGALDTPWQTYVHGVTQGTPE", "modifications": "Paenibacillus spp.", "notes": "β-1,3 endoglucanase, Paenibacillus species"}, "B7": {"name": "β-1,3-endoglucanase (bglH) Paenibacillus immobilized enzyme (SEQ ID NO: 732) (protein)", "chain": "B6 chain", "modifications": "immobilized; Paenibacillus spp."}, "B8": {"name": "SEQ ID NO: 731: callose-degrading β-1,3-endoglucanase from barley (Hordeum vulgare) (protein)", "chain": "GVCYGVIGNNLPSRSDVVQLYRSKGINGMRIYFADGQALSALRNSGIGLILDIGNDQLANIAASTSNAASWVQNNVRPYYPAVNIKYIAAGNEVQGGATQSILPAMRNLNAALSAAGLGAIKVSTSIRFDEVANSFPPSAGVFKNAYMTDVARLLASTGAPLLANVYPYFAYRDNPGSISLNYATFQPGTTVRDQNNGLTYTSLFDAMVDAVYAALEKAGAPAVKVVVSESGWPSAGGFAASAGNARTYNQGLINHVGGGTPKKREALETYIFAMFNENQKTGDATERSFGLFNPDKSPAYNIQF", "modifications": "Hordeum vulgare"}, "B9": {"name": "β-1,3-Endoglucanase from Barley (SEQ ID NO: 731) (protein)", "chain": "B8 chain", "modifications": "Hordeum vulgare"}},
  "key": {"[1]": {"tested_on": "Cladosporium cladosporioides", "assay_type": "in vivo"}, "[2]": {"tested_on": "corn hybrids Beck's 6127 BHMF and 6127 DVMF", "settings": "in vivo"}, "[3]": {"tested_on": "Citrus trees infected with Candidatus Liberibacter asiaticus", "assay_type": "in vivo, Citrus x paradisi", "settings": "[…], trunk injection"}, "[4]": {"tested_on": "Citrus trees infected with CLas", "assay": "Recovery composition trunk injection: 'Valencia' orange fruit yield (Examples 3, 19)", "assay_type": "in vivo, Citrus sinesis"}, "[5]": {"tested_on": "Citrus trees infected with CLas", "design": "species or system Citrus sinesis", "settings": "in vivo"}},
  "data": [
    {"molecule": "B1", "values": [
      {"measurement": "mold growth relative to the surfactant only control", "setting": "[1]; in vivo", "value": 83, "unit": "%"}
    ]},
    {"molecule": "B2", "values": [
      {"measurement": "Observed mold growth spots (out of 18 inoculated)", "setting": "[1]; 6 days", "value": "15 spots (out of 18 inoculated)"},
      {"measurement": "Percent of mold growth relative to surfactant only control", "setting": "[1]; 6 days", "value": 83, "unit": "%"}
    ]},
    {"molecule": "B3", "values": [
      {"measurement": "average yield benefit over the control corn plants", "setting": "[2]", "value": "+7.16 flu/Ac"}
    ]},
    {"molecule": "B4", "values": [
      {"measurement": "mold growth compared to the surfactant control treatment", "setting": "[1]; in vivo", "value": 85, "unit": "%"}
    ]},
    {"molecule": "B5", "values": [
      {"measurement": "Observed mold growth spots (out of 18 inoculated)", "setting": "[1]; 6 days", "value": "12 spots (out of 18 inoculated)"},
      {"measurement": "Percent of mold growth relative to control (mold only)", "setting": "[1]; 6 days", "value": 85, "unit": "%"}
    ]},
    {"molecule": "B6", "values": [
      {"measurement": "mold growth relative to the surfactant only control", "setting": "[1]; in vivo", "value": 61, "unit": "%"}
    ]},
    {"molecule": "B7", "values": [
      {"measurement": "Observed mold growth spots (out of 18 inoculated)", "setting": "[1]; 6 days", "value": "11 spots (out of 18 inoculated)"},
      {"measurement": "Percent of mold growth relative to surfactant only control", "setting": "[1]; 6 days", "value": 61, "unit": "%"}
    ]},
    {"molecule": "B8", "values": [
      {"measurement": "increased yield compared to the untreated control", "setting": "[3]; harvested 20 months post-treatment", "value": 4.1, "unit": "kg per tree"},
      {"measurement": "increased yield compared to the untreated control", "setting": "[4]; 'Valencia' trees, trunk injection", "value": 14.5, "unit": "kg per tree"},
      {"measurement": "yield, average relative to control", "setting": "[4]; 'Valencia', combined average of 2 sites (Table 56)", "value": 124, "unit": "%"},
      {"measurement": "fruit size and ^oBrixc to Citric Acid ratio (Brix:CA) relative to the untreated control", "setting": "[5]", "value": "increased"}
    ]},
    {"molecule": "B9", "values": [
      {"measurement": "Average Yield (kg per tree)", "setting": "[3]; harvested 20 months post-treatment, Bt.4Q7Flg22 0.33 mg/tree, endoglucanase 2600 U/tree, mixture 660 U + 660 U + 0.27 mg/tree", "value": 38.7, "unit": "kg per tree"},
      {"measurement": "Average Yield (kg per tree) Relative to Untreated", "setting": "[3]; untreated = 34.6", "value": "(112%)"}
    ]}
  ]
}
